Source: patent publication US20140206608A1 (priority 2012, published 2014)
Where two headings read alike, the source gives them in different places. *1 amine or outer side, *2 acyl side, *3 side chain or, on linkers, in order; H or OH if unused. Where no end group is shown, it is not given here. Side-chain parts run from the residue outwards. [ ]: non-standard residue; d: D form. The star is where a group is joined. γGlu = O=C(O)[C@H](CCC(=O)[*:2])N[*:1]; Palmitoyl = CCCCCCCCCCCCCCCC(=O)*; x70 = not defined here; Aib = CC(C)(N)C(=O)O

Columns and labels:
[1] = target: T1, human GLP-1 receptor (hGLP-1 R) (Homo sapiens, UniProt P43220); assay: cAMP response of HEK-293 cells stably expressing human GLP-1 receptor (HTRF); format: cell-based; conditions: cAMP formation
T1 construct: expressed in transfected cells; host or cells: HEK-293
Experimental: (§1) cAMP content of cells was determined using a kit from Cisbio Corp. (cat. no. 62AM4PEC) based on HTRF (Homogenous Time Resolved Fluorescence). For preparation, cells were split into T175 culture flasks and grown overnight to near confluency in medium (DMEM/10% FBS). Medium was then removed and cells washed with PBS lacking calcium and magnesium, followed by proteinase treatment with accutase (Sigma-Aldrich cat. no. A6964). Detached cells were washed and resuspended in assay buffer (1×HBSS; 20 mM HEPES, 0.1% BSA, 2 mM IBMX) and cellular density determined. They were then diluted to 400000 cells/ml and 25 μl-aliquots dispensed into the wells of 96-well plates. For measurement, 25 μl of test compound in assay buffer was added to the wells, followed by incubation for 30 minutes at room temperature.

[2] = target: T2, human GIP receptor (hGIP R) (Homo sapiens, UniProt P48546); assay: cAMP response of HEK-293 cells stably expressing human GIP receptor (HTRF); format: cell-based
T2 construct: expressed in transfected cells; host or cells: HEK-293
T2 sequence (P48546 22-466): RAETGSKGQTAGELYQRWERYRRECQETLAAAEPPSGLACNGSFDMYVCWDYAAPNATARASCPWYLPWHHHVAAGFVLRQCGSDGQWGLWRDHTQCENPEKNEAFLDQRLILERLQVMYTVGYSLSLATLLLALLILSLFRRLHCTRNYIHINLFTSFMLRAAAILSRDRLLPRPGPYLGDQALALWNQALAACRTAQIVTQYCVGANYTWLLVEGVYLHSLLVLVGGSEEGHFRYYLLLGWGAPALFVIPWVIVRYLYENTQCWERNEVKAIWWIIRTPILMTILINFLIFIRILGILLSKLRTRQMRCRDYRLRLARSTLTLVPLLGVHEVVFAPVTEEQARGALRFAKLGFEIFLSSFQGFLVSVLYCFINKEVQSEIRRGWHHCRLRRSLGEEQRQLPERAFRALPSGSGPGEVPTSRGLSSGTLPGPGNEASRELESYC
Experimental: as §1

[3] = target: T3, human glucagon receptor (hGLUC R) (Homo sapiens, UniProt P47871); assay: cAMP response of HEK-293 cells stably expressing human glucagon receptor (HTRF); format: cell-based; conditions: EC50 hGLUC R, Table 7; cAMP formation
T3 construct: expressed in transfected cells; host or cells: HEK-293
Experimental: as §1

human GIP receptor = target: T4, human GIP receptor (human, UniProt P48546 22-466); assay: cell-based or functional assay
T4 sequence (looked up): T2 sequence (P48546 22-466)

human GLP-1 receptor = human GLP-1 receptor (human, UniProt P43220 24-463); assay: cell-based or functional assay
human glucagon receptor = human glucagon receptor (human, UniProt P47871 26-477); assay: cell-based or functional assay
human glucagon receptor, sequence (P47871 26-477): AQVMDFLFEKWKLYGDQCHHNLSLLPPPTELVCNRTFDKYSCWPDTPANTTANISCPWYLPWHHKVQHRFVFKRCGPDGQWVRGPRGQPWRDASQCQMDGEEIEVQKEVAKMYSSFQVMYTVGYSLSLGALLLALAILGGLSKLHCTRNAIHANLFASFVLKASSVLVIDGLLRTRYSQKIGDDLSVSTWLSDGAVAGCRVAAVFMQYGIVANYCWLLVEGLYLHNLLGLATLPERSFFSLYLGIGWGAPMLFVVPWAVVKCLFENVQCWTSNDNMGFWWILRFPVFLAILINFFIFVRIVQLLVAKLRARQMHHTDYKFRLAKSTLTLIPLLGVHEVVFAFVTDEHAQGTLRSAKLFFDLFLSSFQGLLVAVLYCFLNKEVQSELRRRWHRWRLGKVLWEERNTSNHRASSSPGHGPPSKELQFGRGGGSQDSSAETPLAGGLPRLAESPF

T1 sequence (P43220 24-463): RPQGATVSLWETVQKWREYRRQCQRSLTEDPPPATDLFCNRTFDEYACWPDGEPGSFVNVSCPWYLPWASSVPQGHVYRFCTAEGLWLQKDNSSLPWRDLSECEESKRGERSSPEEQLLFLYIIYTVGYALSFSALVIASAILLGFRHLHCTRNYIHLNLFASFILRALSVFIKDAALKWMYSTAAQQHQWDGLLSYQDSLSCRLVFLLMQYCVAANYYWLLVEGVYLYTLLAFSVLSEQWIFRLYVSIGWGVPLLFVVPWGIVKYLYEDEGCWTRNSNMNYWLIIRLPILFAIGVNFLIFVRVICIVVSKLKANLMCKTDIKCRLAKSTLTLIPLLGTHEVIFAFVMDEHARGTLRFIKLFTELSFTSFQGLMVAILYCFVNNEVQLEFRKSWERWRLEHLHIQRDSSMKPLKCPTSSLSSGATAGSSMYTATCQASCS
T3 sequence (P47871 26-477): as the sequence (P47871 26-477) above

## CCCCCCCCCCCCCCCC(=O)N[C@@H](CCC(=O)NCCCC[C@H](NC(=O)[C@H](CCC(N)=O)NC(=O)[C@@H](NC(=O)[C@H](CO)NC(=O)[C@H](CC(C)C)NC(=O)[C@H](CC(=O)O)NC(=O)[C@H](CO)NC(=O)[C@@H](NC(=O)[C@H](Cc1ccccc1)NC(=O)[C@@H](NC(=O)CNC(=O)[C@H](CCC(=O)O)NC(=O)C(C)(C)NC(=O)[C@@H](N)Cc1ccc(O)cc1)[C@@H](C)O)[C@@H](C)O)[C@@H](C)CC)C(=O)N[C@@H](CCC(=O)O)C(=O)N[C@@H](CCCCN)C(=O)N[C@@H](CCC(=O)O)C(=O)N[C@@H](C)C(=O)N[C@H](C(=O)N[C@@H](CCCNC(=N)N)C(=O)N[C@@H](CC(C)C)C(=O)N[C@@H](Cc1ccccc1)C(=O)N[C@H](C(=O)N[C@@H](CCC(=O)O)C(=O)N[C@@H](Cc1c[nH]c2ccccc12)C(=O)N[C@@H](CC(C)C)C(=O)N[C@@H](CCCCN)C(=O)N[C@@H](CC(N)=O)C(=O)NCC(=O)NCC(=O)N1CCC[C@H]1C(=O)N[C@@H](CO)C(=O)N[C@@H](CO)C(=O)NCC(=O)N[C@@H](C)C(=O)N1CCC[C@H]1C(=O)N1CCC[C@H]1C(=O)N1CCC[C@H]1C(=O)N[C@@H](CO)C(N)=O)[C@@H](C)CC)C(C)C)C(=O)O [SEQ ID NO: 8, Y-Aib-E-G-T-F-T-S-D-L-S-I-Q-K(γE-x53)-EKEAVRLFIEWLKNGGPSSGAPPPS-NH2]
[1]; Table 7, read-out: EC50 hGLP-1 R
  EC50: 0.0201 nM
[2]; Table 7, cAMP formation, read-out: EC50 hGIP R
  EC50: 0.0167 nM

## CCCCCCCCCCCCCCCC(=O)N[C@@H](CCC(=O)NCCCC[C@H](NC(=O)[C@H](CCC(N)=O)NC(=O)[C@@H](NC(=O)[C@H](CO)NC(=O)[C@H](CC(C)C)NC(=O)[C@H](CC(=O)O)NC(=O)[C@H](CO)NC(=O)[C@@H](NC(=O)[C@H](Cc1ccccc1)NC(=O)[C@@H](NC(=O)CNC(=O)[C@H](CCC(=O)O)NC(=O)C(C)(C)NC(=O)[C@@H](N)Cc1ccc(O)cc1)[C@@H](C)O)[C@@H](C)O)[C@@H](C)CC)C(=O)N[C@@H](CCC(=O)O)C(=O)N[C@@H](CCC(=O)O)C(=O)N[C@@H](CCC(=O)O)C(=O)N[C@@H](C)C(=O)N[C@H](C(=O)N[C@@H](CCCNC(=N)N)C(=O)N[C@@H](CC(C)C)C(=O)N[C@@H](Cc1ccccc1)C(=O)N[C@H](C(=O)N[C@@H](CCC(=O)O)C(=O)N[C@@H](Cc1c[nH]c2ccccc12)C(=O)N[C@@H](CC(C)C)C(=O)N[C@@H](CCCCN)C(=O)N[C@@H](C)C(=O)NCC(=O)NCC(=O)N1CCC[C@H]1C(=O)N[C@@H](CO)C(=O)N[C@@H](CO)C(=O)NCC(=O)N[C@@H](C)C(=O)N1CCC[C@H]1C(=O)N1CCC[C@H]1C(=O)N1CCC[C@H]1C(=O)N[C@@H](CO)C(N)=O)[C@@H](C)CC)C(C)C)C(=O)O [SEQ ID NO: 11, Y-Aib-E-G-T-F-T-S-D-L-S-I-Q-K(γE-x53)-EEEAVRLFIEWLKAGGPSSGAPPPS-NH2]
[2]
  EC50: 0.0057 nM

## CCCCCCCCCCCCCCCCCC(=O)N[C@@H](CCC(=O)NCCCC[C@H](NC(=O)[C@H](CCC(N)=O)NC(=O)[C@@H](NC(=O)[C@H](CO)NC(=O)[C@H](CC(C)C)NC(=O)[C@H](CC(=O)O)NC(=O)[C@H](CO)NC(=O)[C@@H](NC(=O)[C@H](Cc1ccccc1)NC(=O)[C@@H](NC(=O)CNC(=O)[C@H](CCC(=O)O)NC(=O)C(C)(C)NC(=O)[C@@H](N)Cc1ccc(O)cc1)[C@@H](C)O)[C@@H](C)O)[C@@H](C)CC)C(=O)N[C@@H](CCC(=O)O)C(=O)N[C@@H](CCC(=O)O)C(=O)N[C@@H](CCC(=O)O)C(=O)N[C@@H](C)C(=O)N[C@H](C(=O)N[C@@H](CCCNC(=N)N)C(=O)N[C@@H](CC(C)C)C(=O)N[C@@H](Cc1ccccc1)C(=O)N[C@H](C(=O)N[C@@H](CCC(=O)O)C(=O)N[C@@H](Cc1c[nH]c2ccccc12)C(=O)N[C@@H](CC(C)C)C(=O)N[C@@H](CCCCN)C(=O)NC(C)(C)C(=O)NCC(=O)NCC(=O)N1CCC[C@H]1C(=O)N[C@@H](CO)C(=O)N[C@@H](CO)C(=O)NCC(=O)N[C@@H](C)C(=O)N1CCC[C@H]1C(=O)N1CCC[C@H]1C(=O)N1CCC[C@H]1C(=O)N[C@@H](CO)C(N)=O)[C@@H](C)CC)C(C)C)C(=O)O [SEQ ID NO: 12, Y-Aib-E-G-T-F-T-S-D-L-S-I-Q-K(γE-x70)-E-E-E-A-V-R-L-F-I-E-W-L-K-Aib-G-G-P-S-S-G-A-P-P-P-S-NH2]
[1]; EC50 hGLP-1 R, Table 7
  EC50: 0.0119 nM
[3]
  EC50: 95.9 nM

## H-YAEGTFTSDVSIYLEGQAAKEFIAWLVKGR-NH2 [SEQ ID NO: 7, YAEGTFTSDVSIYLEGQAAKEFIAWLVKGR-NH2, reference compound]
[1]; Table 2, read-out: EC50 hGLP-1 R
  EC50: 0.005 nM
[2]; Table 2, cAMP formation, read-out: EC50 hGIP R
  EC50: 3.66 nM

## Tyr(1)Ile(12)-GLP1 (peptide)
Human GIP receptor
  EC50 hGIP R [pM] (formed cAMP): 3660 pM
Human GLP-1 receptor
  EC50 hGLP-1 R [pM] (formed cAMP): 5 pM

## Y[Aib]EGTFTSDLSIQK([γGlu-x70])EEEAVRLFIEWLK[Aib]GGPSSGAPPPS-NH2 (reading uncertain) [SEQ ID NO: 9]
Human glucagon receptor
  EC50 hGLUC R [pM] (formed cAMP): 164000 pM
Human GIP receptor
  EC50 hGIP R [pM] (formed cAMP): 14.6 pM
Human GLP-1 receptor
  EC50 hGLP-1 R [pM] (formed cAMP): 26.7 pM

## Y[Aib]EGTFTSDLSIQK([γGlu-x70])EEEAVRLFIEWLKAGGPSSGAPPPS-NH2 (reading uncertain) [SEQ ID NO: 10]
Human glucagon receptor
  EC50 hGLUC R [pM] (formed cAMP): > 1e+06 pM
Human GIP receptor
  EC50 hGIP R [pM] (formed cAMP): 6.7 pM
Human GLP-1 receptor
  EC50 hGLP-1 R [pM] (formed cAMP): 12.5 pM

B1: SEQ ID NO: 11 (peptide)
peptide: Y[Aib]EGTFTSDLSIQK([γGlu-Palmitoyl])EEEAVRLFIEWLKAGGPSSGAPPPS-NH2
modifications: N-terminus assumed
SMILES: CCCCCCCCCCCCCCCC(=O)N[C@@H](CCC(=O)NCCCC[C@H](NC(=O)[C@H](CCC(N)=O)NC(=O)[C@@H](NC(=O)[C@H](CO)NC(=O)[C@H](CC(C)C)NC(=O)[C@H](CC(=O)O)NC(=O)[C@H](CO)NC(=O)[C@@H](NC(=O)[C@H](Cc1ccccc1)NC(=O)[C@@H](NC(=O)CNC(=O)[C@H](CCC(=O)O)NC(=O)C(C)(C)NC(=O)[C@@H](N)Cc1ccc(O)cc1)[C@@H](C)O)[C@@H](C)O)[C@@H](C)CC)C(=O)N[C@@H](CCC(=O)O)C(=O)N[C@@H](CCC(=O)O)C(=O)N[C@@H](CCC(=O)O)C(=O)N[C@@H](C)C(=O)N[C@H](C(=O)N[C@@H](CCCNC(=N)N)C(=O)N[C@@H](CC(C)C)C(=O)N[C@@H](Cc1ccccc1)C(=O)N[C@H](C(=O)N[C@@H](CCC(=O)O)C(=O)N[C@@H](Cc1c[nH]c2ccccc12)C(=O)N[C@@H](CC(C)C)C(=O)N[C@@H](CCCCN)C(=O)N[C@@H](C)C(=O)NCC(=O)NCC(=O)N1CCC[C@H]1C(=O)N[C@@H](CO)C(=O)N[C@@H](CO)C(=O)NCC(=O)N[C@@H](C)C(=O)N1CCC[C@H]1C(=O)N1CCC[C@H]1C(=O)N1CCC[C@H]1C(=O)N[C@@H](CO)C(N)=O)[C@@H](C)CC)C(C)C)C(=O)O
Human glucagon receptor
  EC50 hGLUC R [pM] (formed cAMP): 429000 pM
Human GIP receptor
  EC50 hGIP R [pM] (formed cAMP): 5.7 pM
Human GLP-1 receptor
  EC50 hGLP-1 R [pM] (formed cAMP): 9.3 pM

## Y[Aib]EGTFTSDLSIQK([γGlu-x70])EEEAVRLFIEWLK[Aib]GGPSSGAPPPS-NH2 (reading uncertain) [SEQ ID NO: 12]
Human glucagon receptor
  EC50 hGLUC R [pM] (formed cAMP): 95900 pM
Human GIP receptor
  EC50 hGIP R [pM] (formed cAMP): 14.6 pM
Human GLP-1 receptor
  EC50 hGLP-1 R [pM] (formed cAMP): 11.9 pM

## Y[Aib]EGTFTSDLSIQK([γGlu-x70])EKEAVRLFIEWLKAGGPSSGAPPPS-NH2 (reading uncertain) [SEQ ID NO: 13]
Human glucagon receptor
  EC50 hGLUC R [pM] (formed cAMP): 200000 pM
Human GIP receptor
  EC50 hGIP R [pM] (formed cAMP): 16.8 pM
Human GLP-1 receptor
  EC50 hGLP-1 R [pM] (formed cAMP): 21.2 pM
